Reference: patent US20050147612A1 (published 2005)
Each block holds one binder with its values, some of them ahead of it.

Columns and labels:
[1] = target: FGFR3 wild type on cells (human, UniProt P22607 23-806); assay: cell-based or functional assay
[2] = target: T1, FR3exFc (human); assay: BIAcore, mini-antibody format
T1 construct: Said to be entirely in dimeric form; also called FR3/Fc; FGFR3/Fc
T1 sequence (chain, as listed by the source limits assumed): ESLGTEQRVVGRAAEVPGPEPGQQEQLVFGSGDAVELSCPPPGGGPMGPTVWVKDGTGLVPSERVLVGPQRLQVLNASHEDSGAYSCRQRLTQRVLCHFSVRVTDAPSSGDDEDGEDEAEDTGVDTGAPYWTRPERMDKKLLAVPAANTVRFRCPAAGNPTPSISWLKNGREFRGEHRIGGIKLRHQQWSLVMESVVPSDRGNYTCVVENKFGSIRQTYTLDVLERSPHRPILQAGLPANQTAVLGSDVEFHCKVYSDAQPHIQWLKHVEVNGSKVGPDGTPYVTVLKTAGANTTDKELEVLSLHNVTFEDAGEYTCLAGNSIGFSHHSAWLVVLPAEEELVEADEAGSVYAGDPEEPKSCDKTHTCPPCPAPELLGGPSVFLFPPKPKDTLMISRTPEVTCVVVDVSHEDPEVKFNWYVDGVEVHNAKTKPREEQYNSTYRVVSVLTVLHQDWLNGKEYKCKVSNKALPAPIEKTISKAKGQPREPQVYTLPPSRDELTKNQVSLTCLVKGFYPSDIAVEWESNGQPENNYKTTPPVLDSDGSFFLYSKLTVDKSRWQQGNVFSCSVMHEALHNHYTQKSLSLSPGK

FGFR3 wild type on cells, sequence (P22607 23-806 limits assumed): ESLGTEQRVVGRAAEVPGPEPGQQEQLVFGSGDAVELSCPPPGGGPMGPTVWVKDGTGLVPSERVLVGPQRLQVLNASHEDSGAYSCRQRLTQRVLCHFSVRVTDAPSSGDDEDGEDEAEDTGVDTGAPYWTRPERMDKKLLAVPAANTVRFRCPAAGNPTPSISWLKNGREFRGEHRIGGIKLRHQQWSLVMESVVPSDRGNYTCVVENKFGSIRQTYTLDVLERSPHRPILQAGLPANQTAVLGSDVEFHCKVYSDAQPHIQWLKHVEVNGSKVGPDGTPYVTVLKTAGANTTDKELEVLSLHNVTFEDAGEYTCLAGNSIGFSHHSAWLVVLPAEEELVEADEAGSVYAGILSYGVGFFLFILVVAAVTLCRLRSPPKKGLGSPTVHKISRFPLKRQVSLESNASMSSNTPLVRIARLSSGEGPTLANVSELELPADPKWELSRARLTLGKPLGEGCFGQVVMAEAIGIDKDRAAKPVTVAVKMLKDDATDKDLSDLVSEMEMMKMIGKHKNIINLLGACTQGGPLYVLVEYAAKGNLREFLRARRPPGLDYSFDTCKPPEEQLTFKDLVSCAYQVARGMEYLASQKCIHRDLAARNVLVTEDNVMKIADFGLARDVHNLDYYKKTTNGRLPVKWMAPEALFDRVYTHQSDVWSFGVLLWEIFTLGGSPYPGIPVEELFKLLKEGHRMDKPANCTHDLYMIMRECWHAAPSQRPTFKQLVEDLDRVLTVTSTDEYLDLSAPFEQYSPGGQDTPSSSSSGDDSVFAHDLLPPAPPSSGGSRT

- IC50, FDCP-FGFR3 proliferation assay with FGF9 [1]: 8 nM
- Kd [2]: 2 nM
B1: MS-Pro-26-dHLX-MH (other, not shown: a dimerising Fc or GST; small tags and cut ends)
VH: QVQLVQSGAEVKKPGASVKVSCKASGYTFTSYYMHWVRQAPGQGLEWMGWINPNSGGTNYAQKFQGRVTMTRDTSISTAYMELSSLRSEDTAVYYCARGYWYAYFTYINYGYFDNWGQGTLVTVSS
VL: DIALTQPASVSGSPGQSITISCTGTSSDVGGYNYVSWYQQHPGKAPKLMIYDVSNRPSGVSNRFSGSKSGNTASLTISGLQAEDEADYYCQSYDNNSDVVFGGGTKLTVL
modifications: Dimeric Fab mini-antibody: Fab fused to the dHLX helix and the MH tag. These parts are not in the letters.
notes: Fab mini-antibody format Fab-dHLX-MH (dimer of the Fab); also called MSPRO26 Fab-dHLX; MSPRO26 dimeric dHLX format; copies: 2 + 2

- Kd [2]: 2 nM
B2: MS-Pro-24-dHLX-MH (other, not shown: a dimerising Fc or GST; small tags and cut ends)
VH: QVQLVQSGAEVKKPGSSVKVSCKASGGTFSSYAISWVRQAPGQGLEWMGGIIPIFGTANYAQKFQGRVTITADESTSTAYMELSSLRSEDTAVYYCARVNHWTYTFDYWGQGTLVTVSS
VL: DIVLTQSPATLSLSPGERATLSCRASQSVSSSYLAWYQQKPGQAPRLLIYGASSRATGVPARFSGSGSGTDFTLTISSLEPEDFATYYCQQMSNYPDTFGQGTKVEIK
modifications: Dimeric Fab mini-antibody: Fab fused to the dHLX helix and the MH tag. These parts are not in the letters.
notes: Fab mini-antibody format Fab-dHLX-MH (dimer of the Fab); copies: 2 + 2
